From the DeepSol protein solubility set

Assay: soluble on expression in E. coli; label from the status in PepcDB or PDB records
In the case of “MEDGDSAEAFRAFAAGVALQREDPSPLWVQLKNRIEHAILDGTLPENARLPSEQAMCSMFDLSRPVIRNALQALAGEGRVIKQPRKGMFVAPRAPELAFMTSALGVFDDLSAKGYKVTVKTYEFGLHPANEDERRVFKLPEGFQVIRALRVYHANETPLTHTLISLPAHRLPGFEKLDMEGRSIFGTIRELYGLTVARADRWLKGAIVPPEVAARMGVPPGGAMIAIESVAYDHDGNALEYYRAYYNSEVAPIHVATDAH”, the “soluble on expression in E. coli” value is reported as “not soluble”. In the case of “GLVPRGSHMTGRMLTLDGNPAANWLNNARTKWSASRADVVLSYQQNNGGWPKNLDYNSVGNGGGGNESGTIDNGATITEMVFLAEVYKSGGNTKYRDAVRKAANFLVNSQYSTGALPQFYPLKGGYSDHATFNDNGMAYALTVLDFAANKRAPFDTDVFSDNDRTRFKTAVTKGTDYILKAQWKQNGVLTVWCAQHGALDYQPKKARAYELESLSGSESVGVLAFLMTQPQTAEIEQAVRAGVAWFNSPRTYLEGYTYDSSLAATNPIVPRAGSKMWYRFYDLNTNRGFFSDRDGSKFYDITQMSLERRTGYSWGGNYGTSIINFAQKVGYL”, the “soluble on expression in E. coli” value is reported as “soluble”. In the case of “MQNHVISLASAAERRAHIAATFGVRGIPFQFFDALMPSEELNRMMAELVPGLAKQHLLSEVEKACFMSHAVLWKQALDEGLPYVAVFEDDVLLGKDAEKFLAEDTWLEERFDKDSAFIVRLETMFAKVIVRPDKVLNYENRSFPLLESEHWGTAGYIISREAMRFFLERFAVLPAEWIKAVDWMMFTYFFDKEGMPVYQVNPALCTQELHYAKFLSKNSMLGSDLEKDREQERRHRRSLKVMFDLKRALGKFGREKKKRMERQRQAELEKAYGRRVISFK”, the “soluble on expression in E. coli” value is reported as “not soluble”. In the case of “MNILLAGGSGLIGQELVRGMGEEHHYTVLGRDKDAIQKIFTTKASSLSWDELNTQDASRFDAVINLCGVNIAISRWTPKIKEEIISSRVQTTENLLHWILQQNAKPRFYCANAVGIYGLQENGDATDLTEDTAINWEHPKDYLSEVGIRWQQALQKAEEAGLPVTSTRFGVVLKKGKGFLGKLYPSFICGLGSTIGDGRQYLSWIDSEDLVNAYRFLLNHPEITGPVNVTSPNPCMQREFAKAFAKSLHRPLLLWTPAFIIHLLFGEMGDCLINHGQKVKPKRLLEAGFEFKWPDIEKALKHQYSAILEHHHHHH”, the “soluble on expression in E. coli” value is reported as “soluble”. With “MLITKNQAEKWFDNSLGKQFNPDLFYGFQCYDYANMFFMLATGERLQGLYAYNIPFDNKAKIEKYGQIIKNYDSFLPQKLDIVVFPSKYGGGAGHVEIVESANLNTFTSFGQNWNGKGWTNGVAQPGWGPETVTRHVHYYDNPMYFIRLNFPNNLSVGNKAKGIIKQATTKKEAVIKPKKIMLVAGHGYNDPGAVGNGTNERDFIRKYITPNIAKYLRHAGHEVALYGGSSQSQDMYQDTAYGVNVGNKKDYGLYWVKSQGYDIVLEIHLDAAGESASGGHVIISSQFNADTIDKSIQDVIKNNLGQIRGVTPRNDLLNVNVSAEININYRLSELGFITNKNDMDWIKKNYDLYSKLIAGAIHGKPIGGVVASEVKAPVKNEKNPPVPAGYTLDKNNVPYKKEQGNYTVANVKGNNVRDGYSTNSRITGVLPNNTTITYDGAYCINGYRWITYIANSGQRRYIATGEVDIAGNRISSFGKFSAV” the “soluble on expression in E. coli” value was “soluble”. In the case of “ITERRQRQQRIEALHDTTRELMHVESREAAAELVVETARDLLGLPLSAVFLADESADALRPTAVTDQAQAIIDDHPTFSEGDSLVWEVFDSGEQRVFNDVSTHPNRYNPDTDVCSELLIPLGDHGVLIAASTDAAAFEDASVSLMRTLAANTEEALSRLDRQQELRTLTER”, the “soluble on expression in E. coli” value is reported as “not soluble”. For “MCSTFMHKFYNSFYFGVMLTTRKEEQMLSKIVWSLLKPQLSSRSYLYNKFVVPPLQIIYVQ”, the “soluble on expression in E. coli” value was “soluble”. For “MGSDKIHHHHHHMTTAQHTVEKIGGTSMSNYEAVRDNIIIGKRKKSDLYQRIFVVSAYGGVTNELLEHKKTGEPGVYALFADAESDWAWGDDLTKLIQLLTDINGELFADPMLKQQADQFITDRIEGVRGCLIDLQRLCSYGQFQLEEHLLTVREMLAGIGEAHSAFNTALKLQQEGINARFVDLTGWRDSELLPLDEKLKQAFDAIDLSRELPIVTGYAQCKEGLMRTFDRGYSEMTFSRTAVITNAREAIIHKEYHLSSADPNIVGEDKVVPLGRTNYDVADQLANLGMEAIHPRAGKGLRQNEIPLRVMNTFEPEHTGTLITGDYVSEKPQVEIVAGAKGVFAIEVFDQDMQGEPGSDRRILDVLSRFKVRFMSKDTNANTITHYVDTTLKHVKRVVKALEEEFPNAEISTRKVALVSAIGSDMKVPGILARSVKSLADNDISVLAIHQCMRQVDIQFVVDEDKYDQAIVALHGALIEPHNHEYAIVAASTTAG”, the “soluble on expression in E. coli” value was “not soluble”. For “MSLTEKTKEVRLDFFEALGMVTALMMDCDYKHWFVADISRNIIPALQAGQCKVYFDEEGRPNAFVTWALVDNDDHEALLREGCNPPPGKWASGNHLWFIDIVAPVGNILPRIKRDLHQNYFADHNKAYAIRSKADGAIRRVQVWKNPLVTRPTRSFRIGADIETHDDEGHHHHHH”, the “soluble on expression in E. coli” value was “soluble”. With “MADSLDRLYQAVLAARDLDPATSRTARLFQRGSGKMAKKLAEEAIEVVIDAVNGNREAVIRESADLLYNLTVLWASAGVRPEDVWAEMRRRENLLGIAEKLPKSRIGKPAAPHATRRPVIPQEARAVRKHR” the “soluble on expression in E. coli” value was “not soluble”. For “MGSDKIHHHHHHMKKLLNTLYVTRQETYVHKERDTIVINSAGEKLAQFPALTISNILCFGQVSVSPPMMGYCGENGIGLVFYTEYGRFLARMIGKQTGNVLLRRTQYRLADDPEKANAIARVMVGAKIANARTVLMREIRNHGEHANISRAVEQLGYSLKSCQFSQSVPQTMGIEGDAAATYFSVFNGLIRGSRFQFNGRIRRPATDPVNALLSFIYSLITQECVSALMGVGLDPYVGFLHQDRPGRPSLALDLLEEFRASWADRFVLTLLNRRQLSPQAFVTEASGAVRLTDDTRKQVLVAFQERKQEEVVHPYLQEKVPYGLLPHCQALLLARHLRGDMEFYTPYLIK”, the “soluble on expression in E. coli” value was “not soluble”. With “MEALIAYSGRRFARPHYYANAHERDEVDIVPVQMAMHDARAAGTGIDREGFQIVKHTSAVTDFADREQVARIHMREIEELVRAETGADMVHVGAPGLLRFSEKSGRAGSLNNSMPARFAHIDISDRTAQAFGERGANGRPFVRCAAYNVWRAISPPPQDVPLAFCDARSLAPGDLIEADAVFDEPGKPEWSFEGLVVAHNPAHRWYFFPDMRIDEAVLFKTNDSDPARAHHVPHVAFDLPDCPADAPPRVSIEMRATAYWWALEHHHHHH” the “soluble on expression in E. coli” value was “soluble”. For “MGSDKIHHHHHHMKILICDDDSSITQSLSLIIKTYFNKKKVNNLDIVTFNDGDSLLSDKSQKDIIFLDIEMPGFDGIYVGNELKKQNDSVIIFIVTSYLEYLDAAMRFHVFRYLSKPIDKQRLFQNLDDALELYYSINQKIAVETKYGVTSVLTCDIVYVEAKGRKVIVHTATADLDSTQTLQFWIEHLPQATFFQSHRSYIVNMAMVTSFDHELIYLCDGQFTAYLTRRKFTEFKRAYLMFMESKR”, the “soluble on expression in E. coli” value was “not soluble”. In the case of “MRNICFVACMLFCLTSAVGKTPGNTRYLSIADSILSNVLNLYQTNDGLLTETYPVNPDQKITYLAGGTQQNGTLKASFLWPYSGMMSGCVALYKATGNKKYKKILEKRILPGMEQYWDNSRLPACYQSYPTKYGQHGRYYDDNIWIALDYCDYYQLTHKPASLEKAVALYQYIYSGWSDEIGGGIFWCEQQKEAKHTCSNAPSTVLGVKLYRLTKDAKYLEKAKETYAWTKKHLCDPTDHLYWDNINLKGKVSKEKYAYNSGQMIQAGVLLYEETGDEQYLRDAQQTAAGTDAFFRTKADKKDPTVKVHKDMAWFNVILFRGLKALYKIDKNPAYVNAMVENALHAWENYRDENGLLGRDWSGHNKEQYKWLLDNACLIEFFAEIAAALEHHHHHH”, the “soluble on expression in E. coli” value is reported as “not soluble”. For “MKVGQDKVVTIRYTLQVEGEVLDQGELSYLHGHRNLIPGLEEALEGREEGEAFQAHVPAEKAYGPHDPEGVQVVPLSAFPEDAEVVPGAQFYAQDMEGNPMPLTVVAVEGEEVTVDFNHPLAGKDLDFQVEVVKVREATPEELLHGHAHPSGHHHHHH”, the “soluble on expression in E. coli” value was “soluble”. With “MGSDKIHHHHHHMHYDHVLDKRMLRRSFEQAAAGYDQSAVLQREICDRMLSRLEYIKYVPARILDAGSGTGYGTRKLIERYPAAEIMPMDIALTMHRCARMAISEQIPGWQRWLPFRRHWPRDYICADIEQLPLGEASIGMIWSNLAIQWCNDLRQTFAEAYRVLENGGLLMFSTFGPDTLKELRQAFKSADSFSHVNRFTDMHDIGDMLVNCGFSLPVMDMEYITLTYEDVRGVMQDLKAIGARNVTQGRRRGLTGKAAWQQVIERYEALRQDGRLPATYEVVYGHAWKPESRQVQLKPETRRKLGLEP” the “soluble on expression in E. coli” value was “not soluble”. With “MEFLLLDDRENLKLAIIRKLEQQYSFSERKDRLCKQLAISPYLLERNITEINADLQRFGLINEMEISEKNNEILLSQSLRISSSIIEEYYLKDSLEFNLLKTIFFHQFTSIKKYGEKHGMSRTVVYKIVDHIRKELGQYGIKLSKNLQLSGNEMAIRQYFTMLYYRIYKDSEELYNQTDLRAVNQLLAQLKGSYENITNFHLFKHYVLVALERTQRKANYFLSQEENPFAFDEESSIYQEIQSWINEVMKATHAEKNAEIQGIIGNLSVYQSELISEHLLSSHNEAITATKTLFFSYMPFTISDEEFYQEIVPIIYQHRFITPFIDITLRIMDLEFFQERYPIVFNSCRQFLFALDCSAFEFSKLSLFFDLLLVLSRLYDQRNEKSTINLYVNFTQGEKYTQFIKEQIKIFESFSIHFHSAIRPDTDLVVSDYLPKTLFSVKCLIWLAPPRASDWQNFGNEIVRINKELQQTKQRKSE” the “soluble on expression in E. coli” value was “not soluble”. In the case of “MGSDKIHHHHHHMNRLVSRSTLLNASRCFSRTAEASAKQTCLIETHKKHGGKLVEFAGYDMPTQYADFSIKESTIHTRKHVSLFDVSHMLQTYITGKDRVAFIESLTTADVQGLQENSGTLSVFTNEKGGIKDDLIIMKTDKDFLFLVTNAGCIEKDLPYLQENAAAWRSKGKDVKIETLDNRGLVAVQGPEMAKVLQEGTDIDLSKLTFMKTTVGKVFGIDGCRVTRCGYTGEDGVEISVDPTKAEQLVERLLASQAGSVKLAGLGARDALRLEAGLCLYGSDIEENTTPIEAGLAFVVAKRRRETLDFPGAEHIVKQLKEKSWPKRRVGLLAPAGRCPRSHLPLIDPLDKCSIGFVTSGCPSPTLGKNIAIAYVDKSHSKIGTKFVVDFGAKQAPVEVVKMPFVPTNYFTGK”, the “soluble on expression in E. coli” value is reported as “not soluble”. With “MLVFISNSRLSESEVQKLRDKHLIDDFIQRENKGYDFAAWHDGMEFVGFENLKQYDSVTVMNDTCFGPLWDMAPIYDNYESNPNVDFWGMTNHQGIKAGDIYIHEHLQSYFISFKKRLVESSVFQKFWKSVESFEDVQKVIDNYETLYTKKFRDAGFNYESILNTIPLNDKFFHSNFTIHYPHVLLDTGVPFIKVKTFDLTQHLAPYLLKEIEKRTDYPVELILSHMSDMSLPTPPYLLDRKVIEKSSQTYSDTKKIAVHLHTYYVDLLEDFLKQFENFHFTYDLFLTTDSEDKKAEIQSILDKNGKVARIFITGNRGRDVIPMLKLKDELSAYDYIGHFHTKKSPEYPYWVGDSWRNELFSMLIQPADNIIANLERDDRLGLVIADIPSFFRYTKIVDPWNENRFAEGMNDLWERMDLGRDIDFDKMNTFIMSYGTFIWFKYDALKPLFDLDLQDEEIPAEPIPQHTILHSIERILVYLAWARRYDYAIAKNDIYITPFVDNVVLNIRPDTLPNTYINFDNIGGIKGALKYIIVGPGTAVKYIFRRIKRKFKSLEHHHHHH” the “soluble on expression in E. coli” value was “soluble”. For “MESIGLVIVSHSKHIAEGVVELISKVAKDVPITYVRGTEGGGIGTSFEQVDRVVSENPADTLLAFFDLGSAKMNLKMVTDFSDKSIIINRVPIVEGAYNAAALLQAGAELSVIQTQLAELEINK”, the “soluble on expression in E. coli” value was “not soluble”. For “MSEAGSTVPFDFSSYGGEIDDLATRGLADAAGAEGIRTAMARVTGRAEEVQASRLSANEQNLIACGPGCADCCRVNVTVLLPEAIAIAAYLEEIGKGDETNAITMRVADTAARVRWMEDDERIRAGVACPFLDGRGWCAIYPVRPLTCRALSSTDPEQCRRALAAHCSDEEETIVVNIFQKFLMEGTFQSLARAMERAGLDTTGRELCRSVTRCLLDPRLADDFLAGKRIKFPESLEHHHHHH”, the “soluble on expression in E. coli” value was “soluble”.
